Results published in publication doi:10.1101/2024.05.21.594841 (bioRxiv, 2024).

How the values were obtained:
Assay in all cases: split reporter
Sed4p = molecular target: T1, Sed4p (S. cerevisiae, UniProt P25365 1-1065)
T1 sequence: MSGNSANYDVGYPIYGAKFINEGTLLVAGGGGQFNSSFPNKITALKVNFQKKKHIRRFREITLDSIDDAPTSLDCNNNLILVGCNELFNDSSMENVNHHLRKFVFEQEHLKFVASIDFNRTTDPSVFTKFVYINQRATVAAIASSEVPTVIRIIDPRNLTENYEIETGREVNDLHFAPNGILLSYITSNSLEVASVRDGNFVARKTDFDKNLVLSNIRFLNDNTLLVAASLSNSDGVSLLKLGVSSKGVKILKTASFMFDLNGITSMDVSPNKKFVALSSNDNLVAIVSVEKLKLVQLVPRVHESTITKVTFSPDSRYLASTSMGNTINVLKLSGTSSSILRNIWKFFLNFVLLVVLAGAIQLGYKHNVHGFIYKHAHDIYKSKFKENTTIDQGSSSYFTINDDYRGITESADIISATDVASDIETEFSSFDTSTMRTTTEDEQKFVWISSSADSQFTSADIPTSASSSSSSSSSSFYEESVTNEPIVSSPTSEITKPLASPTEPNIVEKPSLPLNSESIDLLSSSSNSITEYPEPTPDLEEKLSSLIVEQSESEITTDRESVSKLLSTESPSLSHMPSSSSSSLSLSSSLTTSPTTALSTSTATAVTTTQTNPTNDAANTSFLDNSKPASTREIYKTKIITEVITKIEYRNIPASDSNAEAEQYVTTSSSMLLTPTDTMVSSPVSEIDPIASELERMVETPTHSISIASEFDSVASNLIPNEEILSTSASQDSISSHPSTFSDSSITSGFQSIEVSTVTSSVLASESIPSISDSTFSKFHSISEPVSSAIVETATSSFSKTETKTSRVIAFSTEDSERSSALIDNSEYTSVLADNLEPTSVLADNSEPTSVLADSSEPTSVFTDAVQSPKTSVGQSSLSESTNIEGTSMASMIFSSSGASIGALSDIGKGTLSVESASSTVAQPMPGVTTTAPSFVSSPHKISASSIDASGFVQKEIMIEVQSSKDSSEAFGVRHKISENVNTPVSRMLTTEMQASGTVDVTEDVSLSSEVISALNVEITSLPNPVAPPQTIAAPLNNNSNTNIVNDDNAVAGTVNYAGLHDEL

Yos9p = molecular target: T2, Yos9p (S. cerevisiae, UniProt Q99220 22-542)
T2 sequence: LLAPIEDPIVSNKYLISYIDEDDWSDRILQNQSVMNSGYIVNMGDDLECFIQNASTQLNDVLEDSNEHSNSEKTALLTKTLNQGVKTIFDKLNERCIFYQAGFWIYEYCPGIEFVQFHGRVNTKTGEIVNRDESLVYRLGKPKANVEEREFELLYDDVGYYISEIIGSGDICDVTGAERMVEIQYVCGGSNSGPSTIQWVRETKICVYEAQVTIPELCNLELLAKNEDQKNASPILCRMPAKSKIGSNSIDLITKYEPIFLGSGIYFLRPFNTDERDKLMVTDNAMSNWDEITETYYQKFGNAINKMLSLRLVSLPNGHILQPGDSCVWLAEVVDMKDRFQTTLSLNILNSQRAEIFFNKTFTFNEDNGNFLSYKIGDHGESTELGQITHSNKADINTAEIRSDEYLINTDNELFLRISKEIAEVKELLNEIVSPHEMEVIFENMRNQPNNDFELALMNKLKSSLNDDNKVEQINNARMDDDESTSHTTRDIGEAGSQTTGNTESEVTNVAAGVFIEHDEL

Qcr2p = molecular target: T3, Qcr2p (S. cerevisiae, UniProt P07257 17-368)
T3 sequence: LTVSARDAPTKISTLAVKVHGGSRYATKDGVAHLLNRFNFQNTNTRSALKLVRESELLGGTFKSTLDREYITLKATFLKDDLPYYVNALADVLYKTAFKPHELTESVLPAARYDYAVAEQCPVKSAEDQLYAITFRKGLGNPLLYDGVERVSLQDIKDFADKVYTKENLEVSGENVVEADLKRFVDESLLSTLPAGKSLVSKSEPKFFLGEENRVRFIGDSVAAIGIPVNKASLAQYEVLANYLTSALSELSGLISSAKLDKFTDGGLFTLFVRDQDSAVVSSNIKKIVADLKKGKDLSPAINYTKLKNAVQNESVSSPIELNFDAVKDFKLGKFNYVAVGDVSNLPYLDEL

Scj1p = molecular target: T4, Scj1p (S. cerevisiae, UniProt P25303 22-377)
T4 sequence: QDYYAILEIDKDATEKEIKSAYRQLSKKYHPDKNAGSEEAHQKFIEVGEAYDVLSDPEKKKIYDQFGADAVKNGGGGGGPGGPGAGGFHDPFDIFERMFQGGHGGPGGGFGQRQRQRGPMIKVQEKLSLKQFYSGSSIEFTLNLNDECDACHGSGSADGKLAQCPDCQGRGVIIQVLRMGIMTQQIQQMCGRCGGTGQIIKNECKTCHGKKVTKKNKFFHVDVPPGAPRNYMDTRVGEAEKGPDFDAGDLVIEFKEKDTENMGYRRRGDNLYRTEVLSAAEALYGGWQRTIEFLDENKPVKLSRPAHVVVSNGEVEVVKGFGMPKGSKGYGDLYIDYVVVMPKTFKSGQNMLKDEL

B1: Lhs1p (natural protein)
chain: AVLGVDYGQQNIKAIVVSPQAPLELVLTPEAKRKEISGLSIKRLPGYGKDDPNGIERIYGSAVGSLATRFPQNTLLHLKPLLGKSLEDETTVTLYSKQHPGLEMVSTNRSTIAFLVDNVEYPLEELVAMNVQEIANRANSLLKDRDARTEDFVNKMSFTIPDFFDQHQRKALLDASSITTGIEETYLVSEGMSVAVNFVLKQRQFPPGEQQHYIVYDMGSGSIKASMFSILQPEDTTQPVTIEFEGYGYNPHLGGAKFTMDIGSLIENKFLETHPAIRTDELHANPKALAKINQAAEKAKLILSANSEASINIESLINDIDFRTSITRQEFEEFIADSLLDIVKPINDAVTKQFGGYGTNLPEINGVILAGGSSRIPIVQDQLIKLVSEEKVLRNVNADESAVNGVVMRGIKLSNSFKTKPLNVVDRSVNTYSFKLSNESELYDVFTRGSAYPNKTSILTNTTDSIPNNFTIDLFENGKLFETITVNSGAIKNSYSSDKCSSGVAYNITFDLSSDRLFSIQEVNCICQSENDIGNSKQIKNKGSRLAFTSEDVEIKRLSPSERSRLHEHIKLLDKQDKERFQFQENLNVLESNLYDARNLLMDDEVMQNGPKSQVEELSEMVKVYLDWLEDASFDTDPEDIVSRIREIGILKKKIELYMDSAKEPLNSQQFKGMLEEGHKLLQAIETHKNTVEEFLSQFETEFADTIDNVREEFKKIKQPAYVSKALSTWEETLTSFKNSISEIEKFLAKNLFGEDLREHLFEIKLQFDMYRTKLEEKLRLIKSGDESRLNEIKKLHLRNFRLQKRKEEKLKRKLEQEKSRNNNETESTVINSADDKTTIVNDKTTESNPSSEEDILHDEL
normalized interacting score (Sed4p): > 40% | normalized interacting score (Yos9p): > 40% | normalized interacting score (Qcr2p): 22% | normalized interacting score (Scj1p): > 40%
